Experimental data as given in PMC5632138 (Journal of molecular biology, 2017).
Residue numbers refer to the chain shown, from its start.

Legend:
Test in all cases: BLI
[1] = target: T1, Full-length ETV4 Thr363Ala (UniProt P43268 1-484, Thr363Ala)
T1 sequence (looked up): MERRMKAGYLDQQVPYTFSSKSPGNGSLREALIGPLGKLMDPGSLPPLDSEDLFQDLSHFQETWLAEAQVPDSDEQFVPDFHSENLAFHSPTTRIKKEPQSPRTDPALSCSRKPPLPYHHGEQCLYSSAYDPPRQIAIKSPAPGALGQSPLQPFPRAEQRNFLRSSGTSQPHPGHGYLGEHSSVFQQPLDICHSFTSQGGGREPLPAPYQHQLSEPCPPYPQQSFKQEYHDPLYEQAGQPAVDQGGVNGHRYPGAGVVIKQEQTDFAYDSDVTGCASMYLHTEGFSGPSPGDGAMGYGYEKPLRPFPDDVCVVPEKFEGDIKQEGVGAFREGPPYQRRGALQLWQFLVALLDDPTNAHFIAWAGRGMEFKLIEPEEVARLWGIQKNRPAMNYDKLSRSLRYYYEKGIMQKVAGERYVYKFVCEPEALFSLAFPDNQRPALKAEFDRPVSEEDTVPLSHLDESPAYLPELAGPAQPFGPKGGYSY

[2] = target: T2, Full-length ETV4 Lys370Ala (UniProt P43268 1-484, Lys370Ala)
T2 sequence (looked up): T1 sequence (looked up) with A363T, K370A

[3] = target: T3, Full-length ETV4 Ile372Ala (UniProt P43268 1-484, Ile372Ala)
T3 sequence (looked up): T1 sequence (looked up) with A363T, I372A

[4] = target: T4, Full-length ETV4 Glu373Ala (UniProt P43268 1-484, Glu373Ala)
T4 sequence (looked up): T1 sequence (looked up) with A363T, E373A

JUN/FOS heterodimers = JUN/FOS heterodimers (UniProt P05412 1-331; P01100 1-380)
JUN/FOS heterodimers, sequence (P05412 whole entry, chain 1 of 2): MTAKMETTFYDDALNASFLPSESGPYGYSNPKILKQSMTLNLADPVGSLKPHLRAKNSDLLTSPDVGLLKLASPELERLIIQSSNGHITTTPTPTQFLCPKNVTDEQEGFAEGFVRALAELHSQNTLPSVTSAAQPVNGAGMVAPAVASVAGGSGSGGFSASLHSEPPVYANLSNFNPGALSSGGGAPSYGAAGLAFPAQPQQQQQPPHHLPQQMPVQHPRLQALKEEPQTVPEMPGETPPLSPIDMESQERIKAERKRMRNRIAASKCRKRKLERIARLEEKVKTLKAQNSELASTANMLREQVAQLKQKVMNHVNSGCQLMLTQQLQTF
JUN/FOS heterodimers, sequence (P01100 whole entry, chain 2 of 2): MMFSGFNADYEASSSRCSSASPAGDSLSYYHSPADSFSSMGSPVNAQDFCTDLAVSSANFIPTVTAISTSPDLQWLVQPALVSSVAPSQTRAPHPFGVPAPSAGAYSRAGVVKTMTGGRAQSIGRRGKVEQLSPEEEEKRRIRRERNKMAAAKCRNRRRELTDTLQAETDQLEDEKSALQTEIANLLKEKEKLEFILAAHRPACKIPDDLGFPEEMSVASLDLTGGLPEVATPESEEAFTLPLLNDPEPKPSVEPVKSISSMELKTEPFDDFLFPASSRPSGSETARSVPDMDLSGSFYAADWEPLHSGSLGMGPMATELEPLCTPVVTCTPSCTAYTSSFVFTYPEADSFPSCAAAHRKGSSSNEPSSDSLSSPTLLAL

binding result [1]: binds | binding result [2]: binds | binding result [3]: binds | binding result [4]: binds | Kd (JUN/FOS heterodimers): 5 nM
B1: MED25 ACID (residues 391–553), biotinylated ligand for biolayer interferometry (domain or fragment, human, UniProt Q71SY5 391-553, looked up)
chain: GQQSVSNKLLAWSGVLEWQEKPKPASVDANTKLTRSLPCQVYVNHGENLKTEQWPQKLIMQLIPQQLLTTLGPLFRNSRMVQFHFTNKDLESLKGLYRIMGNGFAGCVHFPHTAPCEVRVLMLLYSSKKKIFMGLIPYDQSGFVNGIRQVITNHKQVQQQKLE
modifications: biotin (biotinylated; D-biotin added at the induction point)
